Literature values as cited in publication PMC5805400.
pKd, pKi: −log10 of the molar value. Like-named read-outs stand apart in the source and are kept apart here. Values belong to the substance of their own block, whether it stands above or below them.

Key:
CYP2J2 (Homo sapiens) = CYP2J2 (Homo sapiens) (UniProt P51589); assay: spin shift
[1] = biological target: CYP2B4 (Oryctolagus cuniculus) (UniProt P00178)
[2] = biological target: CYP2B4 (Oryctolagus cuniculus) (UniProt P00178); remark: listed apart in the source
[3] = biological target: ICP47 (Human alphaherpesvirus 1) (UniProt P03170)
UniProt P03170, sequence (P03170 whole entry): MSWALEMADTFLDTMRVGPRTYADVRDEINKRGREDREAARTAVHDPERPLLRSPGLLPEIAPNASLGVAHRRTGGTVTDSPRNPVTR

[4] = biological target: ICP47 (Human alphaherpesvirus 1) (UniProt P03170); remark: listed apart in the source

UniProt P00178, sequence (P00178 whole entry): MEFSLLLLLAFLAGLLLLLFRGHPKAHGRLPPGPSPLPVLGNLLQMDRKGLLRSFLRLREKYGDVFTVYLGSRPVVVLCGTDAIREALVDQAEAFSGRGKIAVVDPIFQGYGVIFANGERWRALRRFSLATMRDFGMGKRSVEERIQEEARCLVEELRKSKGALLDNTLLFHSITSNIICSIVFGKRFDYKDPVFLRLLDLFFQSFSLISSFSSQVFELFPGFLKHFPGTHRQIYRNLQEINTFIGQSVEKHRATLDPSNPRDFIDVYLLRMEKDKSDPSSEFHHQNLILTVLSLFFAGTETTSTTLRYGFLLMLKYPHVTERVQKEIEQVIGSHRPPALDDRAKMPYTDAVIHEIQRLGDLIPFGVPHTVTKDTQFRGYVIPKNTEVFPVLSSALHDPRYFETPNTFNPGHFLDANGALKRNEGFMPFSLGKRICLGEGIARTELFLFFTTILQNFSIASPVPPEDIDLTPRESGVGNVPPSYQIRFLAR
UniProt P51589, sequence (P51589 whole entry): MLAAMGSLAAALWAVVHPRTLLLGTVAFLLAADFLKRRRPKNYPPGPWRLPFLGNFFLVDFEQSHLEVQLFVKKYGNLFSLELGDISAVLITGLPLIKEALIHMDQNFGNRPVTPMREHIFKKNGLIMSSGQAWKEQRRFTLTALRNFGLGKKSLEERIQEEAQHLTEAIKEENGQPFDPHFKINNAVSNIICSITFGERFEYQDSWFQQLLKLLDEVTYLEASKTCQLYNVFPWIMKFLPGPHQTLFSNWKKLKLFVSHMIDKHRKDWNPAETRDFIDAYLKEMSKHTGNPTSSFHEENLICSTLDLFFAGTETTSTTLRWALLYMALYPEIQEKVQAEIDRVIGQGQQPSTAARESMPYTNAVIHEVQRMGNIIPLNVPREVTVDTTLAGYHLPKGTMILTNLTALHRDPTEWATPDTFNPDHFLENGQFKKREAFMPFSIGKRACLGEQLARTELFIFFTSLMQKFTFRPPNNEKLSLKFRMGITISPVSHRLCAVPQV

pKd (CYP2J2 (Homo sapiens)): 6.92
Substance: CPR (from UniProt P16435)

pKd [1]: 6.85
pKd [2]: 8.10
Substance: Cytochrome b5 (from UniProt P00169)

Substance: TAP (from UniProt Q03518)
pKi [3]: 6.55
pKi [4]: 6.68
